Results from patent US6340783B1, “Rodent models of human amyloidoses” (University of Washington, priority 1992, dated 2002).

Tests used:
mutated β/A4 (1-28) = biological target: T1, mutated β/A4 (1-28) (Homo sapiens, UniProt P05067, H684G/H685G/K687G); assay: Affinity column with β/A4 (1-28) mutated in the putative heparin binding domain; details: histidine, histidine and lysine changed to glycine; versus normal β/A4 (1-28) column
T1 construct: residues 1-28 of BAP or residues 597-624 of BAPP
Source text: As described above, residues 12-17 of the β/A4 (-valine-histidine-histidine-glutamine-lysine-leucine-) conform to a consensus sequence for a potential heparin/heparan sulfate binding domain. This has been recently confirmed by our studies, whereby comparisons were made using column affinity chromatography. One affinity column contained β/A4 (1-28), whereas the other affinity column contained β/A4 (1-28) with three amino acid substitutions of the putative heparin binding domain (i.e. the basic amino acids histidine, histidine and lysine where changed to glycine, and therefore were now uncharged instead of basic amino acids). ^125I-HSPG bound with high affinity to normal β/A4 (1-28) affinity column, whereas a 50-60% decrease in HSPG binding to the mutated β/A4 (1-28) was observed.

[1] = biological target: T2, Beta-Amyloid Protein (1-28) (Homo sapiens, UniProt P05067); assay: Competitive inhibition of 125I-labeled HSPG binding to BAP (1-28) affinity column; details: absence of unlabeled competing ligand, n=5
T2 construct: residues 1-28 of BAP or residues 597-624 of BAPP; purchased Bachem Inc., Torrance, Calif; host or cells: synthetic peptide
Method: ^125I-labeled HSPGs in the presence of increasing concentrations of unlabeled GAGs, or large low density HSPG (from EHS sarcoma) were applied to an Affi-gel 10 column containing BAP (residues 1-28). After nonbound PGs were eluted from the column using TBS+0.1% TX-100, bound PGs were eluted with a step gradient using 15 ml of 1M MgCl2 in TBS+0.1% TX-100, followed by 15 ml of 4M MgCl2 in TBS+0.1% TX-100, and then 10 ml of 8M urea buffer containing 3M NaCl. […] Bars indicate standard error of the mean.
In order to test the specificity of HSPG binding to BAP (1-28), competitive inhibition experiments were also performed. 125-I labeled HSPGs (100,000-200,000 dpm) were mixed with (a) HSPG from EHS sarcoma (Mr approximately 700,000) (Kato et al., 1988) (gift of Dr. Koji Kimata, Aichi, Japan), (b) heparin from porcine intestinal mucosa (Mr˜11,000; Sigma, St. Louis, Mo.), (c) chondroitin-6-sulfate from shark cartilage (Mr˜59,000; Sigma, St. Louis, Mo.), or (d) […] dextran sulfate (Mr˜110,000; Pharmacia Fine Chemicals, Uppsala, Sweden). The samples were incubated on a rotator for 2 hours at room temperature and then applied to the BAP (1-28) column. Columns were run and eluted with step gradients (1 to 4 M MgCl2) as described above.
Purified iodinated HSPGs were combined with various concentrations of unlabeled competing ligands and applied to a BAP (1-28) affinity column (FIG. 10).

## high Mr HSPG: ˜600-800 kDa heparan sulfate proteoglycan isolated from culture media of bovine aortic endothelial cells
Mutated β/A4 (1-28)
  decrease in HSPG binding to mutated β/A4 (1-28): 50-60%
[1]
  applied 125I-HSPG bound to the BAP column: 21.6±4.4%
